Assay results taken from the Immune Epitope Database (IEDB).

Tests used:
Assay in all cases: IEDB peptide-MHC binding, purified MHC/competitive/radioactivity; filed as Kd, often an IC50 or EC50 that approximates it; ≥ and ≤ were set here for values at or beyond the usual limits of such assays
[1] = biological target: HLA-A*11:01
[2] = biological target: HLA-A*33:01
[3] = biological target: HLA-A*31:01
[4] = biological target: HLA-A*68:01
[5] = biological target: HLA-A*03:01
[6] = source organism: Vaccinia virus WR
[7] = source organism: SARS coronavirus Tor2
[8] = source organism: Mammarenavirus tacaribeense
[9] = source organism: Mammarenavirus juninense

| Sequence | Kd [1, 6] [nM] | Kd [2, 6] [nM] | Kd [3, 6] [nM] | Kd [4, 6] [nM] | Kd [5, 6] [nM] | Kd [1, 7] [nM] | Kd [2, 7] [nM] | Kd [3, 7] [nM] | Kd [4, 7] [nM] | Kd [5, 7] [nM] | also measured |
| --- | --- | --- | --- | --- | --- | --- | --- | --- | --- | --- | --- |
| LIKKSDAKR | 236 | 533 | 13.8 | 170 | ≥ 78000 | – | – | – | – | – | – |
| LLFQLCTFTK | – | – | – | – | – | 16.3 | 6910 | 197 | 66.3 | 15.2 | – |
| LLIWAYLSK | 101 | ≥ 37100 | 11200 | 153 | 90.7 | – | – | – | – | – | – |
| LSSKGLACYR | 43.8 | 47 | 6.87 | 4.75 | 129 | – | – | – | – | – | – |
| MQTMLFTMLR | – | – | – | – | – | 11.2 | 13.3 | 9.75 | 1.1 | 72.4 | – |
| MSYYCKSHK | – | – | – | – | – | 78.9 | 1590 | 18.9 | 55.3 | 15.1 | – |
| NAFNCTFEY | – | – | – | – | – | 19.9 | 1870 | 11500 | 9.72 | 3970 | – |
| NCKCCWFADK | – | – | – | – | – | – | – | – | – | – | Kd [1, 8]: ≥ 69700 nM; Kd [2, 8]: ≥ 29600 nM; Kd [3, 8]: 12100 nM; Kd [4, 8]: ≥ 20700 nM; Kd [5, 8]: 13300 nM |
| NFPQHVITK | 2050 | 8920 | 11600 | 1250 | 4020 | – | – | – | – | – | – |
| NQLESKVSGK | – | – | – | – | – | 14700 | ≥ 70000 | ≥ 42500 | 6960 | 9480 | – |
| NSYISNIIY | 2490 | 11700 | ≥ 23700 | 597 | 7480 | – | – | – | – | – | – |
| NVISSKISY | 482 | 6450 | 4960 | 439 | 651 | – | – | – | – | – | – |
| NYTKFWYVNH | – | – | – | – | – | – | – | – | – | – | Kd [1, 9]: ≥ 56900 nM; Kd [2, 9]: 54.5 nM; Kd [3, 9]: 1000 nM; Kd [4, 9]: 9630 nM; Kd [5, 9]: ≥ 70000 nM |
| PLYIDISDVK | 9170 | ≥ 56300 | 9500 | 1420 | 156 | – | – | – | – | – | – |
| PSTVKTNLY | 6770 | 3680 | 6120 | 7980 | ≥ 40300 | – | – | – | – | – | – |
